This is an account of results in patent publication US20170101464A1.

The target in the assay is hTEM8-AP (UniProt Q9H6X2). In words: Biacore affinity measurement, Fab. In general terms: In SPR one partner is held on a chip, and binding of the other changes the refractive index at the surface.
Sequence of UniProt Q9H6X2 (Q9H6X2 33-321): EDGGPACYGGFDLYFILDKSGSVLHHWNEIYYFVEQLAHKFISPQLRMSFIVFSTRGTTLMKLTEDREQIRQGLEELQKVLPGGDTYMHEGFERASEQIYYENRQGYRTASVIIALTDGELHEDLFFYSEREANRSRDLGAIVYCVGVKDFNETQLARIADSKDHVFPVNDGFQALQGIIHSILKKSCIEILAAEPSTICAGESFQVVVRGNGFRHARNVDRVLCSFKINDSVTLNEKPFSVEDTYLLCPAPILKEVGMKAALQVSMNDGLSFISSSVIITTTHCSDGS

B1: M825 anti-TEM8 Fab (Fab, V domains shown)
VH: QVQLVQSGAEVKKPGTSVKVSCKVPGYTFSSYAISWVRQAPGQGLEWMGGIIPIFGTTNYAQKFQGRVTITGEESTSTVYMELSSLRSEDTAVYYCARDTDYMFDYWGQGTLVTVSS
VL: SSELTQDPVVSVALGETVSITCQGDNLRDFYASWYQQKPGQAPLLVMYGKNRRPSGIPDRFSGSTSGNTLSLTITGAQAEDEADYYCSSRDNSKHVVFGGGTKVTVL
As usually defined, the Kd is the equilibrium constant for the complex coming apart. Low readings indicate tighter binding, high ones weaker binding. By koff is commonly meant the first-order rate constant of dissociation. A higher koff goes with fast dissociation. In general, kon refers to the second-order rate constant of association. A high value points to faster complex formation. For the molecule B1, the Kd was found to be 0.0591 nM, the koff came to 0.00018 s⁻¹ and the kon was 3.05e+06 M⁻¹ s⁻¹.
